Data as given in publication PMC4201289 (Genes & Development, 2014).

T1: Mcm4 (subunit in the Mcm2–7 double hexamer) (S. cerevisiae, UniProt P30665 1-933)
T1 sequence: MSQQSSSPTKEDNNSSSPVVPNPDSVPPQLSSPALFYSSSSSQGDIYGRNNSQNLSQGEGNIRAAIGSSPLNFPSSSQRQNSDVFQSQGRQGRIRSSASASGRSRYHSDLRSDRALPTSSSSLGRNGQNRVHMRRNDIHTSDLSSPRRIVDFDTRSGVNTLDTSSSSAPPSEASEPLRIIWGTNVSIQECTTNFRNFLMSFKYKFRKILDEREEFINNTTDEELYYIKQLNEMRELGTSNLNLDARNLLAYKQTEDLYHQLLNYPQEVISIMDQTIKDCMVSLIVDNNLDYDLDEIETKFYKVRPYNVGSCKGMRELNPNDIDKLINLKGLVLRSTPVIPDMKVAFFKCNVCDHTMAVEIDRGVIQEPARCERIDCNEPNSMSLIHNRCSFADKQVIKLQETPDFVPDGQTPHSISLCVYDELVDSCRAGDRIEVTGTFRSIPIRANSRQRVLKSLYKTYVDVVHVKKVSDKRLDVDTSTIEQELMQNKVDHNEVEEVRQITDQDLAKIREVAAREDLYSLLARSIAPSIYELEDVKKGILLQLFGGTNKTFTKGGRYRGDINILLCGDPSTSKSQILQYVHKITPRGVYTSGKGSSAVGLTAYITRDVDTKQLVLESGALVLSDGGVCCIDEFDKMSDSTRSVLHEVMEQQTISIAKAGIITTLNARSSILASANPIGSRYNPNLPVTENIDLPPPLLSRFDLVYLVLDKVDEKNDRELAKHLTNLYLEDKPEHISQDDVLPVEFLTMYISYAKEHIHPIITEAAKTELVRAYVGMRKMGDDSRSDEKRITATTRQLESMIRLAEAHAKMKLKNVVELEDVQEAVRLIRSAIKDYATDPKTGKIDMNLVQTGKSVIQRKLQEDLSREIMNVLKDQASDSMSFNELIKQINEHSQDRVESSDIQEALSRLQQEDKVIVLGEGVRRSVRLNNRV


Key:
[1] = target: Mcm2–7 hexamer (minichromosome maintenance proteins 2–7) (S. cerevisiae) (UniProt P29469); assay: cryo-EM structure
[2] = target: T1, Mcm4 (subunit in the Mcm2–7 double …); assay: negative stain EM, 3D reconstruction

stoichiometry N [1] | binding result [2] | Molecule
2 | – | Mcm2–7 hexamer (minichromosome maintenance proteins 2–7) (from UniProt P29469;P24279;P30665;P29496;P53091;P38132) (complex)
– | binds | Mcm5 (subunit in the Mcm2–7 double hexamer) (natural protein) MSFDRPEIYSAPVLQGESPNDDDNTEIIKSFKNFILEFRLDSQFIYRDQLRNNILVKNYSLTVNMEHLIGYNEDIYKKLSDEPSDIIPLFETAITQVAKRISILSRAQSANNNDKDPENTSMDTDSLLLNSLPTFQLILNSNANQIPLRDLDSEHVSKIVRLSGIIISTSVLSSRATYLSIMCRNCRHTTSITINNFNSITGNTVSLPRSCLSTIESESSMANESNIGDESTKKNCGPDPYIIIHESSKFIDQQFLKLQEIPELVPVGEMPRNLTMTCDRYLTNKVIPGTRVTIVGIYSIYNSKNGAGSGRSGGGNGGSGVAIRTPYIKILGIQSDVETSSIWNSVTMFTEEEEEEFLQLSRNPKLYEILTNSIAPSIFGNEDIKKAIVCLLMGGSKKILPDGMRLRGDINVLLLGDPGTAKSQLLKFVEKVSPIAVYTSGKGSSAAGLTASVQRDPMTREFYLEGGAMVLADGGVVCIDEFDKMRDEDRVAIHEAMEQQTISIAKAGITTVLNSRTSVLAAANPIYGRYDDLKSPGDNIDFQTTILSRFDMIFIVKDDHNEERDISIANHVINIHTGNANAMQNQQEENGSEISIEKMKRYITYCRLKCAPRLSPQAAEKLSSNFVTIRKQLLINELESTERSSIPITIRQLEAIIRITESLAKLELSPIAQERHVDEAIRLFQASTMDAASQDPIGGLNQASGTSLSEIRRFEQELKRRLPIGWSTSYQTLRREFVDTHRFSQLALDKALYALEKHETIQLRHQGQNIYRSGV
– | binds | Mcm2 (subunit in the Mcm2–7 double hexamer) (natural protein) MSDNRRRRREEDDSDSENELPPSSPQQHFRGGMNPVSSPIGSPDMINPEGDDNEVDDVPDIDEVEEQMNEVDLMDDNMYEDYAADHNRDRYDPDQVDDREQQELSLSERRRIDAQLNERDRLLRNVAYIDDEDEEQEGAAQLDEMGLPVQRRRRRRQYEDLENSDDDLLSDMDIDPLREELTLESLSNVKANSYSEWITQPNVSRTIARELKSFLLEYTDETGRSVYGARIRTLGEMNSESLEVNYRHLAESKAILALFLAKCPEEMLKIFDLVAMEATELHYPDYARIHSEIHVRISDFPTIYSLRELRESNLSSLVRVTGVVTRRTGVFPQLKYVKFNCLKCGSILGPFFQDSNEEIRISFCTNCKSKGPFRVNGEKTVYRNYQRVTLQEAPGTVPPGRLPRHREVILLADLVDVSKPGEEVEVTGIYKNNYDGNLNAKNGFPVFATIIEANSIKRREGNTANEGEEGLDVFSWTEEEEREFRKISRDRGIIDKIISSMAPSIYGHRDIKTAVACSLFGGVPKNVNGKHSIRGDINVLLLGDPGTAKSQILKYVEKTAHRAVFATGQGASAVGLTASVRKDPITKEWTLEGGALVLADKGVCLIDEFDKMNDQDRTSIHEAMEQQSISISKAGIVTTLQARCSIIAAANPNGGRYNSTLPLAQNVSLTEPILSRFDILCVVRDLVDEEADERLATFVVDSHVRSHPENDEDREGEELKNNGESAIEQGEDEINEQLNARQRRLQRQRKKEEEISPIPQELLMKYIHYARTKIYPKLHQMDMDKVSRVYADLRRESISTGSFPITVRHLESILRIAESFAKMRLSEFVSSYDLDRAIKVVVDSFVDAQKVSVRRQLRRSFAIYTLGH
